Columns and labels:
retinal explants = assay: Ex vivo retinal explants subjected to OGD/R, NeuN flat-mount staining; assay type: cell-based, mouse; conditions: 3 hours OGD/21 hours reoxygenation, treated at reoxygenation; untreated 55%, PEG only 48%
From the text: Evaluation of retinal neurodegeneration: Retina flat-mounts and explants were immunolabeled for the neuronal marker, NeuN (Millipore), as previously described in Shosha, et al., Cell death & disease, 7:e2483-e (2016). Images were collected and analyzed in a blinded fashion using a semi-automated method. Four images per retina flat-mount were taken as Z-stacks in the mid-periphery of each retina petal using an inverted confocal microscope (LSM 780; Carl Zeiss). Three images were taken per explant. NeuN-positive cells were quantified using ImageJ software ‘Batch processing’ function. A prerecorded ImageJ macro code (FIG. 23A-23C) was used for batch processing. The macro was validated every time it was used to make sure it is compatible with the set of images being analyzed. Results from three to four images were averaged to represent neuron density for each retina. Results are presented as % of sham retina or control explant under normoxic conditions. […]
The retinal IR model was mimicked by subjecting retinal explants to oxygen-glucose deprivation/reperfusion (OGD/R) ex vivo (FIG. 19A). An OGD time-response experiment established 3 hours of OGD/21 hours of reoxygenation to be optimal for studying retinal neurodegeneration ex vivo with about 60% neuronal survival as measured by NeuN flat-mount staining (FIG. 19B-19E, 19F).

[1] = previously reported (De Santo 2018); cited from earlier work
[2] = tested on: C57BL/6J mice subjected to middle cerebral artery occlusion (MCAO); assay: MCAO stroke model: infarct size (TTC) and Bederson score; assay type: in vivo, mouse; conditions: 60 minutes MCAO, 24 hours
Method: MCAO model: C57BL/6J mice (12-16 week-old male, 25-30 g) were subjected to middle cerebral artery occlusion (MCAO) using the intraluminal filament technique (Docol 602145) for 60-minutes followed by reperfusion as described in Eldahshan, et al., American Journal of Physiology Heart and Circulatory Physiology, 316:H1192-h201 (2019). […] A heating pad was used to maintain body temperature at 37° C. […] Sham surgery involved all the regular surgery steps except the filament insertion. Mice were deeply anesthetized at 24 hours and sacrificed by trans-cardial perfusion with PBS then brains were collected and sectioned for triphenyl tetrazolium chloride (TTC) staining or homogenized in RIPA lysis buffer for western blotting. […]
The stroke experiment involved behavioral scoring and manual quantification of the infarct size, and was conducted in a blinded fashion following the STAIR criteria. […]
Infarct size analysis: Brain infarct size was determined based on TTC staining of brain sections as described in Eldahshan, et al., American Journal of Physiology Heart and Circulatory Physiology, 316:H1192-h201 (2019). Images of TTC-stained sections were analyzed in a blinded fashion using ImageJ software [National Institutes of Health (NIH)], and the infarct size was calculated with edema correction using the following formula: 100×[nonstroked−(stroked−infarct)]/nonstroked. […]

[3] = tested on: mice subjected to optic nerve crush (ONC); assay: Optic nerve crush (ONC) model of traumatic optic neuropathy: neuroprotection by NeuN labeling; assay type: in vivo, mouse; conditions: 7 days post-ONC, treated at 3 hours and day 4; vehicle group 62%
Method: Mouse retinal ischemia-reperfusion (IR) injury and traumatic optic neuropathy (TON) models: All experiments were performed in accordance with the ARVO Statement for the Use of Animals in Ophthalmic and Vision Research and were approved by the institutional animal care and use committee (Animal Welfare Assurance no. D16-00197). Wild-type (WT) C57BL/6J mice (10-12 weeks old) were anesthetized using ketamine/xylazine mixture then subjected to retinal ischemia-reperfusion (IR) injury or optic nerve crush (ONC) to model traumatic optic neuropathy (TON) as described in Shosha, et al., Cell death & disease, 7:e2483-e (2016) and Xu, et al., Frontiers in Neuroscience, 12:970 (2018). […]
Evaluation of retinal neurodegeneration: Retina flat-mounts and explants were immunolabeled for the neuronal marker, NeuN (Millipore), as previously described in Shosha, et al., Cell death & disease, 7:e2483-e (2016). Images were collected and analyzed in a blinded fashion using a semi-automated method. […] NeuN-positive cells were quantified using ImageJ software ‘Batch processing’ function. […] The macro was validated every time it was used to make sure it is compatible with the set of images being analyzed. […]

B1: PEG-A1: recombinant human arginase (rhArg) covalently attached to methoxy polyethylene glycol (mPEG-SPA; MW 5,000) via succinamide propionic acid (SPA) linker (protein, UniProt P05089 1-322, looked up)
Arginase-1: MSAKSRTIGIIGAPFSKGQPRGGVEEGPTVLRKAGLLEKLKEQECDVKDYGDLPFADIPNDSPFQIVKNPRSVGKASEQLAGKVAEVKKNGRISLVLGGDHSLAIGSISGHARVHPDLGVIWVDAHTDINTPLTTTSGNLHGQPVSFLLKELKGKIPDVPGFSWVTPCISAKDIVYIGLRDVDPGEHYILKTLGIKYFSMTEVDRLGIGKVMEETLSYLLGRKKRPIHLSFDVDGLDPSFTPATGTPVVGGLTYREGLYITEEIYKTGLLSGLDIMEVNPSLGKTPEEVTRTVNTAVAITLACFGLAREGNHKPIDYLNPPK
modifications: mPEG-SPA 5 kDa conjugate
notes: recombinant human arginase (rhArg) covalently attached to methoxy polyethylene glycol (mPEG-SPA; MW 5,000) via succinamide propionic acid (SPA) linker
neuronal survival of retina explants (NeuN) (retinal explants): 73% | CNS penetration [1]: poor CNS penetration | Bederson score [2]: trend towards improved Bederson score that did not reach statistical significance | infarct size (TTC, percent of contralesional hemisphere) ([2]; vehicle 41%): 34% | neuroprotection after ONC (NeuN labeling and quantification) [3]: 78%

From patent publication US20210340516A1, “COMPOSITIONS CONTAINING ARGINASE 1 FOR THE TREATMENT OF NEUROVASCULAR AND RETINAL VASCULAR DISORDERS” (Augusta University Research Institute, Inc., priority 2020, published 2021)
